Starred links: 1 amine or outer side, 2 acyl side, 3 side chain; linkers in the order of their positions; H or OH if unused. Non-standard residues stand in square brackets, D forms with d. Groups on a side chain read outwards from the residue. Primed or numbered codes have the meaning given here. No end group written: not given here. *: point of attachment. γGlu = O=C(O)[C@H](CCC(=O)[*:2])N[*:1]; Stearoyl = CCCCCCCCCCCCCCCCCC(=O)*; αMeF = C[C@](N)(Cc1ccccc1)C(=O)O; αMeK = C[C@](N)(CCCCN)C(=O)O; αMeS = C[C@](N)(CO)C(=O)O; PEG2′ = not defined here; Aib = CC(C)(N)C(=O)O

The labels stand for the following.
B1: SEQ ID NO 43 (peptide)
peptide: H[Aib]EGS[αMeF]TSDV[αMeS]S[αMeF]LEGEAA[αMeK]E[αMeF]IA[αMeF]VVEGG-NH2
modifications: N-terminus assumed
SMILES: CC[C@H](C)[C@H](NC(=O)[C@](C)(Cc1ccccc1)NC(=O)[C@H](CCC(=O)O)NC(=O)[C@](C)(CCCCN)NC(=O)[C@H](C)NC(=O)[C@H](C)NC(=O)[C@H](CCC(=O)O)NC(=O)CNC(=O)[C@H](CCC(=O)O)NC(=O)[C@H](CC(C)C)NC(=O)[C@](C)(Cc1ccccc1)NC(=O)[C@H](CO)NC(=O)[C@](C)(CO)NC(=O)[C@@H](NC(=O)[C@H](CC(=O)O)NC(=O)[C@H](CO)NC(=O)[C@@H](NC(=O)[C@](C)(Cc1ccccc1)NC(=O)[C@H](CO)NC(=O)CNC(=O)[C@H](CCC(=O)O)NC(=O)C(C)(C)NC(=O)[C@@H](N)Cc1c[nH]cn1)[C@@H](C)O)C(C)C)C(=O)N[C@@H](C)C(=O)N[C@@](C)(Cc1ccccc1)C(=O)N[C@H](C(=O)N[C@H](C(=O)N[C@@H](CCC(=O)O)C(=O)NCC(=O)NCC(N)=O)C(C)C)C(C)C
B2: SEQ ID NO 42 (peptide)
peptide: H[Aib]EGS[αMeF]TSDV[αMeS]S[αMeF]LEGEAAEE[αMeF]IA[αMeF]VV[αMeK]GG-NH2
modifications: N-terminus assumed
SMILES: CC[C@H](C)[C@H](NC(=O)[C@](C)(Cc1ccccc1)NC(=O)[C@H](CCC(=O)O)NC(=O)[C@H](CCC(=O)O)NC(=O)[C@H](C)NC(=O)[C@H](C)NC(=O)[C@H](CCC(=O)O)NC(=O)CNC(=O)[C@H](CCC(=O)O)NC(=O)[C@H](CC(C)C)NC(=O)[C@](C)(Cc1ccccc1)NC(=O)[C@H](CO)NC(=O)[C@](C)(CO)NC(=O)[C@@H](NC(=O)[C@H](CC(=O)O)NC(=O)[C@H](CO)NC(=O)[C@@H](NC(=O)[C@](C)(Cc1ccccc1)NC(=O)[C@H](CO)NC(=O)CNC(=O)[C@H](CCC(=O)O)NC(=O)C(C)(C)NC(=O)[C@@H](N)Cc1c[nH]cn1)[C@@H](C)O)C(C)C)C(=O)N[C@@H](C)C(=O)N[C@@](C)(Cc1ccccc1)C(=O)N[C@H](C(=O)N[C@H](C(=O)N[C@@](C)(CCCCN)C(=O)NCC(=O)NCC(N)=O)C(C)C)C(C)C
B3: SEQ ID NO 44 (peptide)
peptide: H[Aib]EGS[αMeF]TSDV[αMeS]S[αMeF]LEGEAAEE[αMeF]IA[αMeF]VVEGG-NH2
modifications: N-terminus assumed
SMILES: CC[C@H](C)[C@H](NC(=O)[C@](C)(Cc1ccccc1)NC(=O)[C@H](CCC(=O)O)NC(=O)[C@H](CCC(=O)O)NC(=O)[C@H](C)NC(=O)[C@H](C)NC(=O)[C@H](CCC(=O)O)NC(=O)CNC(=O)[C@H](CCC(=O)O)NC(=O)[C@H](CC(C)C)NC(=O)[C@](C)(Cc1ccccc1)NC(=O)[C@H](CO)NC(=O)[C@](C)(CO)NC(=O)[C@@H](NC(=O)[C@H](CC(=O)O)NC(=O)[C@H](CO)NC(=O)[C@@H](NC(=O)[C@](C)(Cc1ccccc1)NC(=O)[C@H](CO)NC(=O)CNC(=O)[C@H](CCC(=O)O)NC(=O)C(C)(C)NC(=O)[C@@H](N)Cc1c[nH]cn1)[C@@H](C)O)C(C)C)C(=O)N[C@@H](C)C(=O)N[C@@](C)(Cc1ccccc1)C(=O)N[C@H](C(=O)N[C@H](C(=O)N[C@@H](CCC(=O)O)C(=O)NCC(=O)NCC(N)=O)C(C)C)C(C)C
B4: SEQ ID NO 17 (peptide)
peptide: H[Aib]EGS[αMeF]TSDV[αMeS]S[αMeF]LEGEAA[αMeK]E[αMeF]IA[αMeF]VV[αMeK]GG-NH2
modifications: N-terminus assumed
SMILES: CC[C@H](C)[C@H](NC(=O)[C@](C)(Cc1ccccc1)NC(=O)[C@H](CCC(=O)O)NC(=O)[C@](C)(CCCCN)NC(=O)[C@H](C)NC(=O)[C@H](C)NC(=O)[C@H](CCC(=O)O)NC(=O)CNC(=O)[C@H](CCC(=O)O)NC(=O)[C@H](CC(C)C)NC(=O)[C@](C)(Cc1ccccc1)NC(=O)[C@H](CO)NC(=O)[C@](C)(CO)NC(=O)[C@@H](NC(=O)[C@H](CC(=O)O)NC(=O)[C@H](CO)NC(=O)[C@@H](NC(=O)[C@](C)(Cc1ccccc1)NC(=O)[C@H](CO)NC(=O)CNC(=O)[C@H](CCC(=O)O)NC(=O)C(C)(C)NC(=O)[C@@H](N)Cc1c[nH]cn1)[C@@H](C)O)C(C)C)C(=O)N[C@@H](C)C(=O)N[C@@](C)(Cc1ccccc1)C(=O)N[C@H](C(=O)N[C@H](C(=O)N[C@@](C)(CCCCN)C(=O)NCC(=O)NCC(N)=O)C(C)C)C(C)C

The target of the experiment is T1, GLP-1R (INS1e assay) (UniProt P32301 22-463, limits assumed).
T1 sequence (looked up): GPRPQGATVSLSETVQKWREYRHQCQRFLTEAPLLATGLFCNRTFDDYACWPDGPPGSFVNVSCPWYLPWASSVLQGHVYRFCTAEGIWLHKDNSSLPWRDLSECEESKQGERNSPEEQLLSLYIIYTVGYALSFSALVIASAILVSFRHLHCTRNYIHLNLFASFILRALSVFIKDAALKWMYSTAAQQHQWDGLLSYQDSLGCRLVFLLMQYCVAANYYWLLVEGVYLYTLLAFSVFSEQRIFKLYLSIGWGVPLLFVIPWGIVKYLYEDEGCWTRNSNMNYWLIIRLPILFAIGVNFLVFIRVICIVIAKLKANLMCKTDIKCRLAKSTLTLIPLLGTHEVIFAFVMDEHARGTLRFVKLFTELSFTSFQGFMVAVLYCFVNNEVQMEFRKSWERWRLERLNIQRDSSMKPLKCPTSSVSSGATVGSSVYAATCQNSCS
Briefly: cell-based or functional assay.
As for H[Aib]EGS[αMeF]TSDV[αMeS]S[αMeF]LEGEAAK([PEG2′-PEG2′-γGlu-Stearoyl])E[αMeF]IA[αMeF]VVKGG-NH2 [SEQ ID NO 50], the “INS1e assay EC50 GLP-1 R n1” value turned out to be 22.1 nM, the “INS1e assay EC50 GLP-1 R n2” value is 42.6 nM and the “INS1e assay EC50 Mean pM GLP-1R” value was 32400 pM.
The like results for B1 were, in that order, 0.016 nM, 0.0105 nM and 13 pM.
Turning to H[Aib]EGS[αMeF]TSDV[αMeS]S[αMeF]LEGEAAK([PEG2′-PEG2′-γGlu-Stearoyl])E[αMeF]IA[αMeF]VV[αMeK]GG-NH2 [SEQ ID NO 33], the “INS1e assay EC50 GLP-1 R n1” value was 3.59 nM, the “INS1e assay EC50 GLP-1 R n2” value came out at 3.78 nM and the “INS1e assay EC50 Mean pM GLP-1R” value turned out to be 3680 pM.
Consider B2, for which the “INS1e assay EC50 GLP-1 R n1” value was found to be 0.207 nM, the “INS1e assay EC50 GLP-1 R n2” value came to 0.167 nM and the “INS1e assay EC50 Mean pM GLP-1R” value was 187 pM.
The like results for B3 were, in that order, 0.475 nM, 0.435 nM and 455 pM.
In the same order, the values of H[Aib]EGSFTSDV[αMeS]S[αMeF]LEGEAAK([PEG2′-PEG2′-PEG2′-Stearoyl])E[αMeF]IA[αMeF]VV[αMeK]GG-NH2 [SEQ ID NO 51] are 0.0247 nM, 0.0207 nM and 23 pM.
The like results for H[Aib]EGS[αMeF]TSDV[αMeS]SYLEGEAAK([PEG2′-PEG2′-γGlu-Stearoyl])E[αMeF]IA[αMeF]VV[αMeK]GG-NH2 [SEQ ID NO 47] were, in that order, 7.13 nM, 12.2 nM and 9660 pM.
For the molecule H[Aib]EGS[αMeF]TSDV[αMeS]S[αMeF]LEGEAAK([PEG2′-PEG2′-γGlu-Stearoyl])EFIA[αMeF]VV[αMeK]GG-NH2 [SEQ ID NO 48], the “INS1e assay EC50 GLP-1 R n1” value turned out to be 0.729 nM, the “INS1e assay EC50 GLP-1 R n2” value was 0.871 nM and the “INS1e assay EC50 Mean pM GLP-1R” value came out at 800 pM.
In the same order, the values of H[Aib]EGS[αMeF]TSDV[αMeS]S[αMeF]LEGEAAK([PEG2′-PEG2′-PEG2′-Stearoyl])EFIA[αMeF]VV[αMeK]GG-NH2 [SEQ ID NO 54] are 0.00267 nM, 0.00837 nM and 6 pM.
The like results for HXEGTFTSDVSSYLEGQAAKEFIAWLVKGRK (Aib2; K(ε-(PEG)2-(PEG)2-γE-Stearate) after R30; C-terminal amide) [SEQ ID NO 6] were, in that order, 0.104 nM, 0.139 nM and 122 pM.
In the same order, the values of H[Aib]EGS[αMeF]TSDV[αMeS]S[αMeF]LEGEAAK([PEG2′-PEG2′-γGlu-Stearoyl])E[αMeF]IAWVV[αMeK]GG-NH2 [SEQ ID NO 49] are 9.35 nM, 10.7 nM and 10000 pM.
B4: the “INS1e assay EC50 GLP-1 R n1” value came out at 0.0051 nM, the “INS1e assay EC50 GLP-1 R n2” value was determined as 0.00787 nM and the “INS1e assay EC50 Mean pM GLP-1R” value was found to be 6 pM.
In the same order, the values of H[Aib]EGS[αMeF]TSDVSS[αMeF]LEGEAAK([PEG2′-PEG2′-PEG2′-Stearoyl])E[αMeF]IA[αMeF]VV[αMeK]GG-NH2 [SEQ ID NO 52] are 0.0214 nM, 0.0193 nM and 20 pM.
Regarding H[Aib]EGS[αMeF]TSDVSS[αMeF]LEGEAAK([PEG2′-PEG2′-γGlu-Stearoyl])E[αMeF]IA[αMeF]VV[αMeK]GG-NH2 [SEQ ID NO 46], the “INS1e assay EC50 GLP-1 R n1” value is 52.6 nM, the “INS1e assay EC50 GLP-1 R n2” value came to 83.4 nM and the “INS1e assay EC50 Mean pM GLP-1R” value turned out to be 68000 pM.
The like results for H[Aib]EGS[αMeF]TSDV[αMeS]SYLEGEAAK([PEG2′-PEG2′-PEG2′-Stearoyl])E[αMeF]IA[αMeF]VV[αMeK]GG-NH2 [SEQ ID NO 53] were, in that order, 0.00625 nM, 0.00815 nM and 7 pM.
The like results for H[Aib]EGSFTSDV[αMeS]S[αMeF]LEGEAAK([PEG2′-PEG2′-γGlu-Stearoyl])E[αMeF]IA[αMeF]VV[αMeK]GG-NH2 [SEQ ID NO 45] were, in that order, 76.1 nM, 113 nM and 94600 pM.
Consider H[Aib]EGS[αMeF]TSDV[αMeS]S[αMeF]LEGEAAK([PEG2′-PEG2′-γGlu-Stearoyl])E[αMeF]IA[αMeF]VV[αMeK]GG-NH2 [SEQ ID NO 3], for which the “INS1e assay EC50 GLP-1 R n1” value was 3.59 nM, the “INS1e assay EC50 GLP-1 R n2” value worked out at 3.78 nM and the “INS1e assay EC50 Mean pM GLP-1R” value is 3680 pM.

Source of the values: patent US20200079833A1 (AstraZeneca / MedImmune, published 2020).
